Test results: patent publication US10907134B2, “Mutated genes for the catalytic protein of oplophorus luciferase and use thereof” (JNC CORPORATION, priority 2013, dated 2021)

Assays:
[1] = Luminescence activity of ZZ-fused KAZ mutants in crude enzyme solutions; type: biochemical; conditions: Table 4; ZZ-fused (pCold-ZZ-P-); 1 μL crude enzyme solution, 1 mM DTT; 1 μg coelenterazine
Method: To express the ZZ-fused KAZ mutants in E. coli, the recombinant plasmid prepared in EXAMPLE 6 was used. Crude enzyme solutions were prepared in the same manner as EXAMPLE 4 using the E. coli BL21 strain (Novagen, Madison, Wis.) as a host cell. The resultant crude enzyme solution, 5 μL, was subjected to SDS-PAGE analysis to confirm expression of the proteins (FIG. 2). In FIG. 2, M and 1 to 18 are the same as described in FIG. 1.
DTT was added to the crude enzyme solution obtained in EXAMPLE 7 at a final concentration of 1 mM and the mixture was allowed to stand in an ice water for more than 5 hours. A luminescence reaction was started by adding 1 μL of the crude enzyme solution to 100 μL of TE containing 1 μg of coelenterazine (manufactured by JNC Corp.). The luminescence activity was determined using a luminometer (manufactured by Atto Inc.: AB2200) for 60 seconds, and the maximum intensity of luminescence (Imax) was shown as relative luminescence activity.
To express the ZZ-fused KAZ mutants in E. coli, the recombinant plasmid constructed in EXAMPLE 16 and pCold-ZZ-P-V44I-KAZ, pCold-ZZ-P-A54I-KAZ, pCold-ZZ-P-Y138I-KAZ prepared in EXAMPLE 6 were used. Crude enzyme solutions were prepared in the same manner as EXAMPLE 7, using the E. coli BL21 strain (Novagen, Madison, Wis.) as a host cell. DTT was added to the crude enzyme solutions at a final concentration of 1 mM. The mixtures were allowed to stand over 5 hours on ice, and luminescence activities were then assayed. The luminescence activities were determined by the method described in EXAMPLE 8. Also, 5 μL of the resultant crude enzyme solutions were subjected to SDS-PAGE analysis to confirm protein expression (FIG. 4). In FIG. 4, M and 1 to 9 are as follows. M: molecular weight size markers; 1: ZZ-P-KAZ; 2: ZZ-P-KAZ-V44I; 3: ZZ-P-KAZ-A54I; 4: ZZ-P-KAZ-Y138I; 5: ZZ-P-KAZ-V44I-A54I; 6: ZZ-P-KAZ-V44I-Y138I; 7: ZZ-P-KAZ-A54I-Y138I; 8: ZZ-P-KAZ-V44I-A54I-Y138I; and 9: ZZ-P-dnKAZ.

[2] = Luminescence activity of KAZ mutants (pCold II, E. coli) in supernatant and precipitate of crude enzyme solution; type: biochemical; conditions: Table 3, pCold II, E. coli BL21, 0.5 μg coelenterazine, 60 seconds; for Relative Luminescence Activity (Imax) Precipitate: 5 μL precipitate; for Relative Luminescence Activity (Imax) Supernatant: 5 μL supernatant
Method: In order to express the KAZ mutants in E. coli, the recombinant plasmid prepared in EXAMPLE 3 was used. The E. coli BL21 strain (Novagen, Madison, Wis.) was used as a host cell. The BL21 strain carrying the recombinant plasmid was incubated in 5 mL of Luria-Bertani medium (hereinafter designated as LB medium) containing ampicillin (50 μg/mL) at 37° C. for 18 hours. This seed culture, 0.1 mL, was inoculated to 10 mL of LB medium and incubated for 3 hours, followed by cooling in an ice-water bath for 1 hour. IPTG was added to the culture medium at a final concentration of 1 mM, followed by incubation at 15° C. for further 20 hours. After completion of the incubation, 1 mL of the cultured medium was harvested by centrifugation at 10,000 rpm for 2 minutes. The thus collected E. coli cells were suspended in 0.5 mL of 30 mM Tris-HCl (pH 7.6)-10 mM EDTA (manufactured by Wako Pure Chemical Industries, Ltd.) (hereinafter designated as TE). The E. coli cells were disrupted by sonication for 3 seconds using a Branson Model 250 Sonifier (Danbury, Conn.) to give a crude enzyme solution. After 0.5 mL of the crude enzyme solution was further centrifuged at 10,000 rpm for 2 minutes to separate the supernatant from the precipitate, the precipitate was suspended in 0.5 mL of TE. Then 20 μL each of the supernatant and precipitate were analyzed by SDS-PAGE to confirm the presence or absence of soluble and insoluble proteins. The results are shown in FIG. 1, wherein M and 1 to 17 denote: M: molecular weight size markers; 1: KAZ; 2 KAZ-A4E; 3: KAZ-Q11R; 4: KAZ-Q18L; 5: KAZ-L27V; 6: KAZ-A33N; 7: KAZ-K43R; 8: KAZ-V44I; 9: KAZ-A54I; 10: KAZ-F68D; 11: KAZ-L72Q; 12: KAZ-M75K; 13: KAZ-I90V; 14: KAZ-P115E; 15: KAZ-Q124K; 16: KAZ-Y138I; 17: KAZ-N166R and 18: dnKAZ.
A luminescence reaction was started by the addition of 5 μL each of the supernatant and precipitate obtained in EXAMPLE 4 to 100 μL of TE containing 0.5 μg of coelenterazine (manufactured by JNC Corp.). The luminescence activity was measured for 60 seconds using a luminometer (manufactured by Atto Corp.: AB2200) and expressed in terms of relative luminescence activity (Imax).
To express the KAZ mutants with two amino acid substitutions and three amino acid substitutions in E. coli using a pCold II vector, the recombinant plasmid constructed in EXAMPLE 13 and pCold-V44I-KAZ, pCold-A54I-KAZ, pCold-Y138I-KAZ prepared in EXAMPLE 3 were used. The supernatant and precipitate of each crude enzyme solution were prepared in the same manner as EXAMPLE 4, using the E. coli BL21 starin (Novagen, Madison, Wis.) as a host cell. The supernatant and precipitate, 20 μL each, were subjected to SDS-PAGE analysis to confirm the presence or absence of soluble proteins and insoluble proteins. In FIG. 3, M and 1 to 9 are as follows. M: molecular weight markers; 1: dnKAZ; 2: KAZ; 3: KAZ-V44I-A54I; 4: KAZ-V44I-Y138I; 5: KAZ-A54I-Y138I; 6: KAZ-V44I-A54I-Y138I; 7: KAZ-V44I; 8: KAZ-A54I; and 9: KAZ-Y138I.
The luminescence activities of 5 μL each of the supernatant and precipitate obtained in EXAMPLE 14 were determined in the same manner as EXAMPLE 5. The luminescence activity was assayed with a luminometer (manufactured by Atto Inc.: AB2200) for 60 seconds, and the maximum intensity of luminescence (Imax) was shown as relative luminescence activity.

CHO-K1 cells = test: Luminescence activity of KAZ mutants expressed in animal culture cells with signal peptide of Gaussia luciferase for secretion; type: cell-based, Chinese hamster; conditions: Table 5, pcDNA3-GLsp- vectors, CHO-K1, 48 hours, 0.5 μg coelenterazine; for Relative Luminescence Activity (Imax) (%) Cell Extracts: 5 μL cell extracts; for Relative Luminescence Activity (Imax) (%) Culture Medium: 5 μL culture medium
Method: Chinese hamster ovary cell line CHO-K1 was cultured in Ham's F-12 medium (manufactured by Wako Pure Chemical Industries, Ltd.) supplemented with 10% (v/v) fetal bovine serum (manufactured by Biowest Inc.). The CHO-K1 cells were plated in a 6-well plate in 1×10^5 cells/well/2 mL medium (n=2) and cultured in an incubator at 37° C. in 5% (v/v) CO2. After 24 hours, the purified recombinant plasmid was transfected to CHO-K1 cells using a FuGene HD transfection kit (manufactured by Promega Corp.), which was provided for subsequent experiment. Specifically, 1 μg of the recombinant plasmid pGL4.13 [Luc2/sv40], 0.1 μg of the internal standard vector and 3 μL of FuGene HD were added to 100 μL of the medium, which was allowed to stand at room temperature for 15 minutes. Subsequently, 100 μL of the DNA-FuGene complex was added to the cells in the 6 wells. After incubation for 48 hours, the culture medium was collected. On the other hand, the KAZ mutants expressed in the cells were washed 3 times with 3 mL of 1×PBS, then suspended in 1 mL of 1×PBS and disrupted on ice by ultrasonication, which was used as enzyme solutions of the cell-extracts of KAZ mutants.
A luminescence reaction was started by adding 5 μL of the culture media and cell extracts obtained in EXAMPLE 10 to 100 μL of 30 mM Tris-HCl (pH 7.6)-10 mM EDTA (manufactured by Wako Pure Chemical Industries, Ltd.) containing 0.5 μg of coelenterazine (manufactured by INC Corp.). The luminescence activity was determined using a luminometer (manufactured by Atto Inc.: AB2200) for 60 seconds, and the maximum intensity of luminescence (Imax) was defined as a percentage.
Culture media of the KAZ mutants with two amino acid substitutions and KAZ mutants with three amino acid substitutions and the enzyme solutions of the cell-extracts of KAZ mutants were prepared in the same manner as EXAMPLE 10.
In the resultant enzyme solutions and the enzyme solutions of the cell-extracts of KAZ mutants, luminescence activities were determined in the same manner as EXAMPLE 11.

Row | Relative Luminescence Activity (Imax) [1] | Molecule | Relative Luminescence Activity (Imax) Precipitate [2] | Relative Luminescence Activity (Imax) Supernatant [2] | Relative Luminescence Activity (Imax) (%) Cell Extracts (CHO-K1 cells) | Relative Luminescence Activity (Imax) (%) Culture Medium (CHO-K1 cells)
1 | 1.8 | KAZ-I90V: KAZ with single amino acid substitution I90V (protein) FTLADFVGDWQQTAGYNQDQVLEQGGLSSLFQALGVSVTPIQKVVLSGENGLKADIHVIIPYEGLSGFQMGLIEMIFKVVYPVDDHHFKVILHYGTLVIDGVTPNMIDYFGRPYPGIAVFDGKQITVTGTLWNGNKIYDERLINPDGSLLFRVTINGVTGWRLCENILA | 0.4 | 2.1 | 0.3% | less than 0.01%
2 | 3.7 | KAZ-Q124K: KAZ with single amino acid substitution Q124K (protein) FTLADFVGDWQQTAGYNQDQVLEQGGLSSLFQALGVSVTPIQKVVLSGENGLKADIHVIIPYEGLSGFQMGLIEMIFKVVYPVDDHHFKIILHYGTLVIDGVTPNMIDYFGRPYPGIAVFDGKKITVTGTLWNGNKIYDERLINPDGSLLFRVTINGVTGWRLCENILA | 0.8 | 7.4 | 0.3% | less than 0.01%
3 | 0.5 | KAZ-A4E: KAZ with single amino acid substitution A4E (protein) FTLEDFVGDWQQTAGYNQDQVLEQGGLSSLFQALGVSVTPIQKVVLSGENGLKADIHVIIPYEGLSGFQMGLIEMIFKVVYPVDDHHFKIILHYGTLVIDGVTPNMIDYFGRPYPGIAVFDGKQITVTGTLWNGNKIYDERLINPDGSLLFRVTINGVTGWRLCENILA | 0.2 | 1.5 | 0.1% | less than 0.01%

Continued, molecule first:

Row | Molecule | Relative Luminescence Activity (Imax) [1] | Relative Luminescence Activity (Imax) Precipitate [2] | Relative Luminescence Activity (Imax) Supernatant [2] | Relative Luminescence Activity (Imax) (%) Cell Extracts (CHO-K1 cells) | Relative Luminescence Activity (Imax) (%) Culture Medium (CHO-K1 cells)
4 | KAZ-P115E: KAZ with single amino acid substitution P115E (protein) FTLADFVGDWQQTAGYNQDQVLEQGGLSSLFQALGVSVTPIQKVVLSGENGLKADIHVIIPYEGLSGFQMGLIEMIFKVVYPVDDHHFKIILHYGTLVIDGVTPNMIDYFGRPYEGIAVFDGKQITVTGTLWNGNKIYDERLINPDGSLLFRVTINGVTGWRLCENILA | 4.5 | 1.1 | 16 | 0.3% | less than 0.01%
5 | KAZ-N166R: KAZ with single amino acid substitution N166R (protein) FTLADFVGDWQQTAGYNQDQVLEQGGLSSLFQALGVSVTPIQKVVLSGENGLKADIHVIIPYEGLSGFQMGLIEMIFKVVYPVDDHHFKIILHYGTLVIDGVTPNMIDYFGRPYPGIAVFDGKQITVTGTLWNGNKIYDERLINPDGSLLFRVTINGVTGWRLCERILA | 3.6 | 0.8 | 4.7 | 0.2% | less than 0.01%
